This note sets out measurements from article PMC6547453.

The target in assay [1] is full-length RspWYL1 (Ruminococcus sp. WYL1, amino acids 1–392) (Ruminococcus sp.). The assay is described as follows: SEC-MALS; HPLC SEC-MALS, AdvanceBio SEC 300A column, 50 mM Tris-HCl pH 7.5, 150 mM NaCl, 1 mM TCEP; RspWYL1 loaded at 10 mg/ml.
The target is the same in assay [2]. The assay is described as follows: SEC; Superdex 200 gel filtration column, compared with a protein molecular mass standard mixture.
Assay [3] deals with RspWYL1 double mutant I108D/I109D (Ruminococcus sp.). The assay is described as above.
For assay [4], the target named is RspWYL1 double mutant Y386A/N387A (Ruminococcus sp.). The assay is described as above.

With “full-length RspWYL1 (Ruminococcus sp. WYL1, amino acids 1–392) (natural protein)”, the stoichiometry N in assay [1] and in assay [2] was 2 each time.
Turning to “RspWYL1 double mutant I108D/I109D (natural protein)”, the stoichiometry N in assay [3] came to 2.
Take “RspWYL1 double mutant Y386A/N387A (natural protein)”: in assay [4], the stoichiometry N was 2.
